Results reported in article PMC3433420, “Comprehensive Binary Interaction Mapping of SH2 Domains via Fluorescence Polarization Reveals Novel Functional Diversification of ErbB Receptors” (PLoS ONE, 2012).
Values joined by “and” are separate entries in the source; they are usually repeats but may differ in a detail not shown here. Equal entries are not always repeated. Non-standard residues stand in square brackets, D forms with d. No end group written: not given here. pY = N[C@@H](Cc1ccc(OP(=O)(O)O)cc1)C(=O)O; Rhodamine = not defined here

Key:
Test in all cases: peptide or protein array; SH2/PTB proteins spotted on aldehyde slides, rhodamine peptide titrated in buffer B (20 mM HEPES, 100 mM KCl, 0.1% Tween-20, 5 mM DTT, pH 7.8), 1 h at room temperature; replicate assays
Settings in all cases: both partners purified
MATK SH2 domain = molecular target: T1, MATK SH2 domain (human, UniProt P42679 122-211)
T1 construct: MATK, human; source: bacterial expression, purified
T1 sequence (looked up): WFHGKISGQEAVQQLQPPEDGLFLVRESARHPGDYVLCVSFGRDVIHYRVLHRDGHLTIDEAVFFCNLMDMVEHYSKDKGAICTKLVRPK

PLCG2 tandem SH2 domains = molecular target: T2, PLCG2 tandem SH2 domains (human)
T2 construct: PLCG2, human; also called PLCG2-NC; source: bacterial expression, purified
T2 sequence (P16885 whole entry, looked up): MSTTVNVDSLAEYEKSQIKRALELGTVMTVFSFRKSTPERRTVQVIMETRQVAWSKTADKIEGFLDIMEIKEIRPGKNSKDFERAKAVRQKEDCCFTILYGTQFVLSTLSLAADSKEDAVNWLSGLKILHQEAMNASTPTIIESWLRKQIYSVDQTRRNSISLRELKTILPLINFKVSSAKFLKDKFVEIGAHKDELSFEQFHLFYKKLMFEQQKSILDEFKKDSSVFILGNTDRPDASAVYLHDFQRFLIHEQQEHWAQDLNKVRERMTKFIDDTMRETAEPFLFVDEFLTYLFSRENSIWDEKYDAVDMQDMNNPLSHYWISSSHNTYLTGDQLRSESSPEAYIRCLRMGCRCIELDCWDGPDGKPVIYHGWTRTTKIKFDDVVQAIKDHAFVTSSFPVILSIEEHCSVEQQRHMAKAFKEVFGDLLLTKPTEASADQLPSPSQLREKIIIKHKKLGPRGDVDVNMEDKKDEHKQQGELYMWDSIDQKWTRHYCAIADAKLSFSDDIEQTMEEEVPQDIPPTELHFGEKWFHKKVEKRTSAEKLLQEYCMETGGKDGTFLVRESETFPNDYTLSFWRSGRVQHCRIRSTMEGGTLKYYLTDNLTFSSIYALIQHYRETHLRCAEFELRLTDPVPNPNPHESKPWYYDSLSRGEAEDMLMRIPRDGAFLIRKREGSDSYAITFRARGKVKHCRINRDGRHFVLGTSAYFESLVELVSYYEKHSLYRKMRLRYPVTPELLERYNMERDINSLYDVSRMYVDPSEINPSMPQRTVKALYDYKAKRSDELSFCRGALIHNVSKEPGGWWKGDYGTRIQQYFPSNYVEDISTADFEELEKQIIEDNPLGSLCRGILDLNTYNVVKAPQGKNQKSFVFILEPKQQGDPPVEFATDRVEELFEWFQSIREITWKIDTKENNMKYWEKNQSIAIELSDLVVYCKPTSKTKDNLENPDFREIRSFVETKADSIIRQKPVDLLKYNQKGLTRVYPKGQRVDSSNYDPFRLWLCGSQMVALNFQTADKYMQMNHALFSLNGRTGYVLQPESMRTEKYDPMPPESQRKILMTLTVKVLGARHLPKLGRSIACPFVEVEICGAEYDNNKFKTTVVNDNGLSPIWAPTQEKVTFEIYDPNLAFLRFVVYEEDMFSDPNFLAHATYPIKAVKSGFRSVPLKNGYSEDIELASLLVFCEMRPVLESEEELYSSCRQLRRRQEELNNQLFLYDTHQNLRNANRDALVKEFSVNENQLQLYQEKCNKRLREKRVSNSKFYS

ZAP70 tandem SH2 domains = molecular target: T3, ZAP70 tandem SH2 domains (human)
T3 construct: ZAP70, human; also called ZAP70-NC; source: bacterial expression, purified
T3 sequence (P43403 whole entry, the tested form may be a part): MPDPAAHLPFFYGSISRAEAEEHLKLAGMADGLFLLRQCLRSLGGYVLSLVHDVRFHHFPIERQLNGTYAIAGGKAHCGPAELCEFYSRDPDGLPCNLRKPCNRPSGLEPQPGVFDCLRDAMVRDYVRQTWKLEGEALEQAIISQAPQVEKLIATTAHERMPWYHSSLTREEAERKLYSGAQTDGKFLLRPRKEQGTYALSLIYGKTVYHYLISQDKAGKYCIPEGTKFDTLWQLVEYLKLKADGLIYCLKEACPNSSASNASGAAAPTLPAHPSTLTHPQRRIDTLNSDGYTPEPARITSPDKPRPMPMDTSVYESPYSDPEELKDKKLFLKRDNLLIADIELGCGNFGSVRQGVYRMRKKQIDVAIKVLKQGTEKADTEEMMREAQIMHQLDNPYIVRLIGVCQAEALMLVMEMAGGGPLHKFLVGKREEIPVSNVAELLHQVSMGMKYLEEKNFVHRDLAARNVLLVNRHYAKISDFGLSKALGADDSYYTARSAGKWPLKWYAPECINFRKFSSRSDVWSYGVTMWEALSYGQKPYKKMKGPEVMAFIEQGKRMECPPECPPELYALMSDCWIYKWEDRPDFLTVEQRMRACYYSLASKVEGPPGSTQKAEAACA

Rhodamine-ETDG[pY]VAPLTCSD (reading uncertain) [ErbB2 pY1127 phosphopeptide, rhodamine-labelled, for protein microarrays]
Kd (MATK SH2 domain): 4.4 µM | Kd (PLCG2 tandem SH2 domains): 0.578 µM and 1.6 µM | Kd (ZAP70 tandem SH2 domains): 2.01 µM and 2.41 µM
